Assay results: patent US20260226524A1, “GLUTAMINE SYNTHETASE MARKER FOR RECOMBINANT EXPRESSION” (priority 2023, published 2026)

B1: ostrich GS: Struthio camelus australis glutamine synthetase, SEQ ID NO: 2 (nucleotide SEQ ID NO: 11), used as selectable marker (protein, listed as Struthio camelus)
chain: MATSASSHLSKAIKHMYMKLPQGEKVQAMYIWIDGTGEHLRCKTRTLDHEPKSLEDLPEWNFDGSSTFQAEGSNSDMYLRPAAMFRDPFRKDPNKLVLCEVFKYNRQSAETNLRHTCRRIMDMVSNQHPWFGMEQEYTLLGTDGHPFGWPSNGFPGPQGPYYCGVGADKAYGRDIVEAHYRACLYAGVKIGGTNAEVMPAQWEFQVGPCEGIEMGDHLWIARFILHRVCEDFGVIVSFDPKPIPGNWNGAGCHTNFSTKSMREDGGLKHIEEAIEKLGKRHQYHIRAYDPKGGLDNARRLTGFHETSSIHEFSAGVANRGASIRIPRNVGHEKKGYFEDRRPSANCDPYAVTEALVRTCLLNETGDEPFEYKN
modifications: OstrichGS
B2: Chinese hamster GS: Cricetulus griseus glutamine synthetase, SEQ ID NO: 9 (nucleotide SEQ ID NO: 18), Uniprot P04773; traditional selectable marker (protein, listed as Cricetulus griseus)
chain: MATSASSHLNKGIKQMYMSLPQGEKVQAMYIWVDGTGEGLRCKTRTLDCEPKCVEELPEWNFDGSSTFQSESSNSDMYLSPVAMFRDPFRKEPNKLVFCEVFKYNQKPAETNLRHTCKRIMDMVSNQHPWFGMEQEYTLLGTDGHPFGWPSDGFPGPQGLYYCGVGADKAYRRDIMEAHYRACLYAGVKITGTYAEVKHAQWEFQIGPCEGIRMGDHLWVARFILHRVCKDFGVIATFDSKPIPGNWNGAGCHTNFSTKTMREENGLKHIKEAIEKLSKRHRYHIRAYDPKGGLDNARRLTGFHKTSNINDFSAGVADRSASIRIPRTVGQEKKGYFEARCPSANCDPFAVTEAIVRTCLLNETGDQPFQYKN
modifications: Hamster GS
B3: koala GS: Phascolarctos cinerecus glutamine synthetase, SEQ ID NO: 1 (nucleotide SEQ ID NO: 10), used as selectable marker (protein, listed as Phascolarctos cinereus)
chain: MATSASSHLNKNIKQMYMNLPQGNKVLAMYIWIDGTGEGLRCKTRTLDSEPKSIDDLPEWNFDGSSTYQSEGSNSDMYLVPAALFRDPFRKDPNKLVFCEVFKYNRKPAETNLRHTCKRIMDMVTNQKPWFGMEQEYTLMGTDGHPFGWPSNGFPGPQGPYYCGVGADKAYGRDIAEAHYRACLYAGVKIVGTNAEAMPSQWEFQIGPCEGIEMGDHLWVARFILHRVCEDFGMIVTFDPKPIPGNWNGAGCHTNFSTKAMREENGLKFIEEAIERLSKRHKYHIRAYDPKGGLDNARRLTGFNETSNINEFSAGVANRGASIRIPRMVGQDKKGYFEDRRPSANCDPYAVTEALIRTCLLNETGEEPFQYKN
modifications: Koala GS

Experiments:
[1] = test system: Chinese Hamster Ovary CHO-K1 (CCL-61) host cell; test: Bio-Layer Interferometry (Octet) analysis of denosumab expression in supernatants of cell pools selected with GS markers; format: cell-based; conditions: 50 μM MSX; for pools expressed detectable denosumab (>0.125 ug/mL): Day 20, among 300 seeded pools in 96-well plates, GS used as selectable marker; for median expression value of denosumab of positive pools: Day 20, positive pools (>0.125 ug/mL), Octet ProA biosensor
Protocol: Vector design: Nearly all selectable marker currently used in GS system is Cricetulus griseus-derived GS.
(§1) After random integration, GS expression in each individual cell was evaluated by monitoring UnaG level using flow cytometry. Denosumab here served as the secreted reporter for assessing titers using selectable glutamine synthetase markers from different species. The vectors differed from one another by the GS-coding sequences, which were derived from Chinese hamster (Cricetulus griseus), koala (Phascolarctos cinerecus), vesper bat (Pipistrellus kuhlii), gerbil (Meriones unguiculatus), ostrich (Struthio camelus australis), junglefowl (Gallus gallus), pigeon (Columbia Livia), and snake (Pseudonaja textilis), respectively.
(§2) Electroporation and cell screening: Expression vectors described above were first linearized by the restriction endonuclease Pvul (there was one Pvul site in the ampicillin resistant gene). Then linearized vectors were introduced into the host cell using cell electroporator (Lonza Nuleofector 2b). The host cell was derived from ATCC wild-type Chinese Hamster Ovary CHO-K1 (CCL-61) and adapted to serum-free suspension culture at Shanghai ZhenGe Biotech Co. Ltd. 24 hours post electroporation, cell pools were plated into culture flasks or 96-well plates (approximately 1, 200 cells/well, 300 wells per condition) in the absence of or presence of MSX (50 μM).

[2] = test system: Chinese Hamster Ovary CHO-K1 (CCL-61) host cell; test: Flow cytometry analysis of GS expression via UnaG fluorescence in electroporated cell pools; format: cell-based; conditions: about 3 weeks post-seeding; for UnaG expression of cells (selection efficiency): MSX selection, FIGS. 3A-3B
Description: Vector design: Nearly all selectable marker currently used in GS system is Cricetulus griseus-derived GS. To investigate whether the GS from other species further improve titer or screening efficiency, a set of vectors were designed as described below: • a sequence coding for an eel green fluorescent protein UnaG, a 2A self-cleaving peptide and a glutamine synthetase, placed under the control of the SV40 promoter; • two expression cassettes, in which the sequences coding for the heavy chain and light chain of a human anti-RANKL antibody denosumab were placed under the control of CMV promoters, respectively; • a sequence coding for a protein conferring resistance to ampicillin, for use in prokaryotic cells; and • a prokaryotic origin of replication.
as §1, with “The 2A self-cleaving peptide allowed relatively equal molar expression of the two products separated by it, namely, the green fluorescent protein UnaG and glutamine synthetase. After” for “After”
as §2
Flow cytometry analysis of GS expression: About 3 weeks post-seeding, cell pools electroporated with GS gene from indicated species were analyzed using Attune NxT flow cytometer (FIGS. 3A-3C). […] As shown, when the GS from Chinese Hamster was used as the selectable marker, most tested cells (>98%) remained UnaG “negative” in the presence of the MSX, indicating low selection efficiency.

Row | Molecule | pools expressed detectable denosumab (>0.125 ug/mL) [1] [%] | median expression value of denosumab of positive pools [1] [µg/mL] | UnaG expression of cells (selection efficiency) [2] | tested cells remaining UnaG negative ([2]; in the presence of the MSX (50 μM)) [%]
1 | B1 | 65.3 | 2.57 | significant amounts of cells showed positive UnaG expression | 
2 | B2 | 4.3 | 1.07 |  | > 98
3 | B3 | 85.6 | 2.86 | significant amounts of cells showed positive UnaG expression | 
